The values below come from patent US20220332804A1 (CSL INNOVATION, published 2022).

In general, Kd refers to the free concentration of one partner at which half of the binding sites on the other are occupied at equilibrium, for simple one-to-one binding. Lower therefore signals higher affinity.

What all share (assay): SPR, antibody captured, C2 as analyte;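 also: biacore SPR at 37 °C, anti-C2 mAbs captured via goat anti-human IgG on CM5 chips, double-referenced sensorgrams fit to a 1:1 kinetic or steady-state model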
(Surface plasmon resonance follows binding to a sensor surface in real time, without labels.)

For experiment [1], the target named is T1, human C2 M316A (human, UniProt P06681 21-752).
T1 sequence: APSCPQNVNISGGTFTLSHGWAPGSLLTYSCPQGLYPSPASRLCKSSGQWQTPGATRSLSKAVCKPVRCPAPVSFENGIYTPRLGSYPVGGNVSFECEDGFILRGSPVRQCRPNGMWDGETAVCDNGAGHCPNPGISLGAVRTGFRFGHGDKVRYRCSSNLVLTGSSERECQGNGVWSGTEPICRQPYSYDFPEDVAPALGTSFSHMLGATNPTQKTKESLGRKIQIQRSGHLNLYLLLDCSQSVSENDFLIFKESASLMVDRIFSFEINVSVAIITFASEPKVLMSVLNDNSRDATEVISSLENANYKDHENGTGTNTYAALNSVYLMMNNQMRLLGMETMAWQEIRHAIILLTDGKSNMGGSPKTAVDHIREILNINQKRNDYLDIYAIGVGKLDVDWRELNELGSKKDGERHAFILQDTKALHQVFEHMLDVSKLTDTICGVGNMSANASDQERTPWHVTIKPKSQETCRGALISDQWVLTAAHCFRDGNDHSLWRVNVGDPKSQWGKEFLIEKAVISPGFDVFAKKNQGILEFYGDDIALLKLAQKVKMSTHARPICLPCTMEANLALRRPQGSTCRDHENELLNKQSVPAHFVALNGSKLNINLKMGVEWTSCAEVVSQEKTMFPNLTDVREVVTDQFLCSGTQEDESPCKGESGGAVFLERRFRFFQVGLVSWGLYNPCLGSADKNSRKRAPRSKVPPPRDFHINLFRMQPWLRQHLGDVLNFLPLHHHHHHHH

Experiment [2] addresses T2, human C2 N703A (human, UniProt P06681 21-752).
T2 sequence: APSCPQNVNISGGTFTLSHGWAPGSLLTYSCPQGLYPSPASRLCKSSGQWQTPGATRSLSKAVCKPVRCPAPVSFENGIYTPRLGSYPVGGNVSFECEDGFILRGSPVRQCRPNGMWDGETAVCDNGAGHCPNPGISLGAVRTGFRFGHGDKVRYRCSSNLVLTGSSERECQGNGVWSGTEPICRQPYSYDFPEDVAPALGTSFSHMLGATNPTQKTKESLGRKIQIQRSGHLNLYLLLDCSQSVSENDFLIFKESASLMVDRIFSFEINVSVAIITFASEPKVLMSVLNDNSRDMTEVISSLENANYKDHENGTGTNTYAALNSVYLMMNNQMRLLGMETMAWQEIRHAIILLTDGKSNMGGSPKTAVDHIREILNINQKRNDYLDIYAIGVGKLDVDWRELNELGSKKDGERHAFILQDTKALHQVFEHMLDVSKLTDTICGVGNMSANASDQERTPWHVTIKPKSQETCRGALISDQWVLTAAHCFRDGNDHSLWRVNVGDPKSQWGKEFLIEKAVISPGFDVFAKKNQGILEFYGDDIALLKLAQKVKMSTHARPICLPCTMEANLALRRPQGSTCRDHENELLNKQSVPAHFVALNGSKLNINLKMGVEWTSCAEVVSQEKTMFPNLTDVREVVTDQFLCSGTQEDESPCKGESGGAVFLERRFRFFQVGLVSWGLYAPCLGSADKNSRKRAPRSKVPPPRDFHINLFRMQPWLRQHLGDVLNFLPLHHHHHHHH

Experiment [3] concerns the target T3, human C2 D404A (human, UniProt P06681 21-752).
T3 sequence: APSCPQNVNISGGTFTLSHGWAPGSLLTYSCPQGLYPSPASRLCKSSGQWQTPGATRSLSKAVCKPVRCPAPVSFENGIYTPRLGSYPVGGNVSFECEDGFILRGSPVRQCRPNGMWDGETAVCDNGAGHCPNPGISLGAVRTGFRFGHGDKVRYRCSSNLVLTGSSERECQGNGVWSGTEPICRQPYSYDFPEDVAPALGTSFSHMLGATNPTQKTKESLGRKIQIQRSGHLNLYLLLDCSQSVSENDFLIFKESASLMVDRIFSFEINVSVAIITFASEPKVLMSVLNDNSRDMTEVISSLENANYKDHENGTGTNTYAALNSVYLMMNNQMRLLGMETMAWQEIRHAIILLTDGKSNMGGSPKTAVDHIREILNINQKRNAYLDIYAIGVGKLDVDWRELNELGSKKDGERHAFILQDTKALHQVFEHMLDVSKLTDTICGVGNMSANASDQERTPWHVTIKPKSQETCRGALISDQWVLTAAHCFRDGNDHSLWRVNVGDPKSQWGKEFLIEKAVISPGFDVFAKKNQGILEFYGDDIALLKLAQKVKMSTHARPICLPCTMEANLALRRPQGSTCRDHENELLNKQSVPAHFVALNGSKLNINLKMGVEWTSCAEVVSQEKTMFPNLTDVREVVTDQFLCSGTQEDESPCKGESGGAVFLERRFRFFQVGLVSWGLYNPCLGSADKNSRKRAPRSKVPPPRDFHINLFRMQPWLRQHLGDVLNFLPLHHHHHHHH

For experiment [4], the target named is T4, human C2 G427A (human, UniProt P06681 21-752).
T4 sequence: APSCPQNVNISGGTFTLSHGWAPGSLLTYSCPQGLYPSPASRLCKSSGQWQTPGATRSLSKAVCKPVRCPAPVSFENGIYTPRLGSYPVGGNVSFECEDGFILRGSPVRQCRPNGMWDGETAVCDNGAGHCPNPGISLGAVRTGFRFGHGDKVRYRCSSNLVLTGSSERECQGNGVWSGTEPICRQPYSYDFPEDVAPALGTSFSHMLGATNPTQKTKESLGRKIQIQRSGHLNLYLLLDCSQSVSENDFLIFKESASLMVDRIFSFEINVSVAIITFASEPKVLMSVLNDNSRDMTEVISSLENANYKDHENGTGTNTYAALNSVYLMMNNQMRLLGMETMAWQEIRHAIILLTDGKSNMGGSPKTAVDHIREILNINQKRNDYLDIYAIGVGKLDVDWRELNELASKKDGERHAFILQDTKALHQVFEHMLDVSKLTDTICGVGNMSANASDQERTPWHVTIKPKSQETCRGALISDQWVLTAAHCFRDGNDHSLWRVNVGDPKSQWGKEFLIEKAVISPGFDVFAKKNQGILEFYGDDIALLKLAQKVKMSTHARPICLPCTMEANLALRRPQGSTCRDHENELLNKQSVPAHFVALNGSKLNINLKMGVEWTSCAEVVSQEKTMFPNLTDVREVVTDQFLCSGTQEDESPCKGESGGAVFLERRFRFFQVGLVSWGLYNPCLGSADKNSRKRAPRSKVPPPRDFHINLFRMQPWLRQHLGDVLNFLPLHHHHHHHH

B1: RF16-226 (antibody, human IgG4 S228P, lambda)
heavy: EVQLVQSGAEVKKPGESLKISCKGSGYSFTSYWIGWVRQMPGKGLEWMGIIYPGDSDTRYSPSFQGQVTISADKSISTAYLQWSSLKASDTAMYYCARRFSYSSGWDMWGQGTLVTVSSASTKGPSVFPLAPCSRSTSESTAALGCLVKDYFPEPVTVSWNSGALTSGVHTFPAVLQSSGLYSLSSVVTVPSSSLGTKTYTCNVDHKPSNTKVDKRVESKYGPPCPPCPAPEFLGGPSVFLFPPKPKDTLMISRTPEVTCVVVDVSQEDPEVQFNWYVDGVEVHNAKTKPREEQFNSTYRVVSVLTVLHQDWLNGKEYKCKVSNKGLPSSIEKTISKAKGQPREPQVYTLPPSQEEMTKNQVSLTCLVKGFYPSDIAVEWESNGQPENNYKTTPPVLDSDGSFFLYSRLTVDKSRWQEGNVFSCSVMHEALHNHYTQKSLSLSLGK
light: SYELTQPPSVSVSPGQTARITCSGDALTSKYVAWYQQKSGLAPLLVIYEDTRRPSGIPAKFSGSSSGSVATLTISGAHGDDEADYYCYSTDASGHQRVFGGGTKLTVLSQPKAAPSVTLFPPSSEELQANKATLVCLISDFYPGAVTVAWKADGSPVKAGVETTKPSKQSNNKYAASSYLSLTPEQWKSHRSYSCQVTHEGSTVEKTVAPTECS
notes: pH-dependent anti-C2 antibody from a phage display library; also called WT
B1: the Kd in experiment [1] amounted to 12.3 nM; in experiment [2] it was 292 nM; in experiment [3] it was 12.8 nM; in experiment [4], 4.2 nM.
